# T1: recombinant human EGFL7 (human, UniProt Q9UHF1 24-273, limits assumed)
# T1 construct: Produced in E. coli and His6/poly-His-tagged; also called hEGFL7; poly-His-tagged EGFL7
# T1 sequence (looked up): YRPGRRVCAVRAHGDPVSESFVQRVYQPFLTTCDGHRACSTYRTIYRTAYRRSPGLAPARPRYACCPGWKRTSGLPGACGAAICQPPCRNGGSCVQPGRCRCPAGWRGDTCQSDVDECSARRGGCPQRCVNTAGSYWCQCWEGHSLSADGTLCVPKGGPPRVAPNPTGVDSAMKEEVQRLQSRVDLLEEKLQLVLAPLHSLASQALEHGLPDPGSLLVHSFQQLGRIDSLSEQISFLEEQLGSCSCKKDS
# T2: recombinant mouse EGFL7 (mouse, UniProt Q9QXT5 22-275, limits assumed)
# T2 construct: also called mEGFL7; poly-His-tagged EGFL7
# T2 sequence (looked up): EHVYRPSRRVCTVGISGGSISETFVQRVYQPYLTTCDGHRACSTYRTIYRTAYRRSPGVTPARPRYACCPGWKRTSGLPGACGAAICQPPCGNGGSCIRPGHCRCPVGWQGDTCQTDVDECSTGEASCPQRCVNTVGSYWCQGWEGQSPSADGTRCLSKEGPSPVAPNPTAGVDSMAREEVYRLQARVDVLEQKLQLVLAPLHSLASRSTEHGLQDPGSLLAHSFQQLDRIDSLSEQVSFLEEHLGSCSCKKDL
# B1: anti-EGFL7 mumab 4F11.1.8 (antibody, IgG2b, V domains shown)
# VH: QIQLVQSGPELKKPGETVKISCKASGHTFTTYGMSWVKQAPGKGLKWMGWINTHSGVPTYADDFKGRFAFSLETSASTAHLQINNLKNEDTATYFCARLGSSAVDYWGQGTTVTVSS
# VL: DIVLTQSPASLAVSLGQRATISCKASQSVDYDGDSYMSWYQQKPGQPPKLLIYGASNLESGIPARFSGSGSGTDFTLNIHPVEEEDAATYYCQQNNEDPYTFGGGTKVEIKR
# notes: ATCC PTA-7343
# Columns and labels:
# [1] = target: B1; assay: peptide competition at 10-fold molar excess with EGFL7 protein; immunoprecipitation and SDS-PAGE
# recombinant human EGFL7 = target: T1, recombinant human EGFL7; assay: SPR, BIAcore 3000, room temperature; antibody on CM5 chip, poly-His-tagged EGFL7 injected; 1:1 global fit; Mab stock in 50 mM Tris/125 mM NaCl
# Protocol: (§1) Binding affinity of the Mabs for both human and mouse EGFL7 was determined by surface plasmon resonance using Pharmacia BIAcore® 3000 (BIAcore AB, Uppsala, Sweden) at room temperature (see, e.g., Morton et al., Meth. Enzymol. 295:268-94 (1998)). Anti-EGFL7 antibodies were immobilized to the sensor chip (CM5) through primary amine groups. The carboxymethylated sensor chip surface matrix was activated by injecting 20 μl of a mixture of 0.025 M N-hydroxysuccinimide and 0.1 M N-ethyl-N′(dimethylaminopropyl) carbodiimide at 5 μl/min 5-10 μl of 10 μg/ml solution of […] in 10 mM sodium acetate, pH 4.5, were injected at 5 μl/min After coupling, unoccupied sites on the chip were blocked by injecting 20 μl of 1M ethanolamine, pH 8.5. The running buffer was PBS containing 0.05% polysorbate 20. For kinetic measurements, two-fold serial dilutions of poly-His-tagged EGFL7 in running buffer were injected over the flow cells for 3 minutes at a flow rate of 30 μl/min and the bound polyhis tagged EGFL7 was allow to dissociate for 20 minutes. The binding surface was regenerated by injecting 20 μl of 10 mM glycine.HCl (pH 1.5). […] There was no significant non-specific binding of poly-His-tagged EGFL7 to flow cell one. For calculating apparent binding affinity, data were analyzed using a 1:1 binding model using global fitting. […]
# recombinant mouse EGFL7 = target: T2, recombinant mouse EGFL7; assay: as above
# Protocol: as §1
binding result [1],Kd (recombinant human EGFL7) [pM],Kd (recombinant mouse EGFL7) [pM],Binder
binds,,,RPRYACCPGWKRT [polypeptide p2]
,473,756,B1

# From patent US20100203041A1 (Genentech, published 2010)
